The target of assay [1] is human FGFR1 (transcript variant 2), overexpressed on HEK293T cells (human) (UniProt P11362). Description: bioluminescent (NanoLuc) competition binding on living cells; adherent HEK293T cells transiently overexpressing human FGFR1; constant FGF2-Luc as tracer and various concentrations of wild-type or mutant FGF2 in serum-free DMEM plus 1% BSA and 5 μg/ml heparin, 20°C, 2–3 h.

Assay [2] deals with endogenous FGF receptor of untransfected HEK293T cells (human (endogenous in HEK293T)) (UniProt P11362).
Assay [3] shares this target. Put plainly: bioluminescent (NanoLuc) competition binding on living cells; untransfected HEK293T cells in suspension in a 96-well filtration plate; constant FGF2-Luc as tracer and various concentrations of wild-type or mutant FGF2 in serum-free DMEM plus 1% BSA and 5 μg/ml heparin, 20°C, 2–3 h.
The target is the same in assay [4]. Description: bioluminescent (NanoLuc) saturation binding on living cells; untransfected HEK293T cells in suspension in a 96-well filtration plate; various concentrations of FGF2-Luc in serum-free DMEM plus 1% BSA and 5 μg/ml heparin, 20°C, 2–3 h; nonspecific binding with 250 nM 6×His-FGF2; one-site model.
Assay [5] deals with human FGFR1 (transcript variant 2), overexpressed on HEK293T cells (human) (UniProt P11362). Put plainly: bioluminescent (NanoLuc) saturation binding on living cells; adherent HEK293T cells transiently overexpressing human FGFR1 in 96-well plates; various concentrations of FGF2-Luc in serum-free DMEM plus 1% BSA and 5 μg/ml heparin, 20°C, 2–3 h; nonspecific binding with 250 nM 6×His-FGF2; one-site model.

As usually defined, the IC50 is the midpoint of a concentration-inhibition curve. Regarding 6×His-FGF2 (ligand), the IC50 in assay [1] amounted to 0.65 nM; in assay [3], 0.081 nM. In assay [2], this substance returned an EC50 of activation of a serum response element (SRE)-controlled NanoLuc reporter in HEK293T cells of 0.058 nM.

On to 6×His-[C95S]FGF2 (ligand), for which the EC50 of activation of a serum response element (SRE)-controlled NanoLuc reporter in HEK293T cells in assay [2] came out at 0.1 nM.

Regarding 6×His-[Y32A]FGF2 (ligand), the IC50 is 3.45 nM in assay [1] and 5.4 nM in assay [3]. In addition, the EC50 of activation of a serum response element (SRE)-controlled NanoLuc reporter in HEK293T cells in assay [2] was 0.309 nM.

Turning to 6×His-[Y111A]FGF2 (ligand), the IC50 in assay [1] was 5.88 nM; in assay [3], 10 nM. The same substance displayed an EC50 of activation of a serum response element (SRE)-controlled NanoLuc reporter in HEK293T cells in assay [2] of 0.794 nM.

The Kd is a measure of binding affinity in units of concentration. Turning to “NanoLuc-conjugated FGF2 (FGF2-Luc) (ligand)”, the dissociation constant Kd was found to be 0.025 nM in assay [4] and 0.161 nM in assay [5].

The values are drawn from article PMC4944982.
